Tests used:
WRKY50BD [1] = biological target: T1, WRKY50BD (Arabidopsis thaliana, UniProt Q8VWQ5 86-173); experiment: competition; 4000-fold excess against labelled S1; EMSA with 3' biotin-labelled probes (LightShift kit detection); buffer, salt, pH and temperature not given (earlier protocols cited); conditions: protein: recombinant; label: unlabelled
WRKY70 [2] = biological target: T2, WRKY70 (Arabidopsis thaliana, UniProt Q9LY00 1-294); experiment: EMSA; shift abolished or strongly reduced by 4000-fold unlabelled S2; EMSA with 3' biotin-labelled probes (LightShift kit detection); buffer, salt, pH and temperature not given (earlier protocols cited); conditions: protein: recombinant; label: 3' biotin (probe)
T2 sequence: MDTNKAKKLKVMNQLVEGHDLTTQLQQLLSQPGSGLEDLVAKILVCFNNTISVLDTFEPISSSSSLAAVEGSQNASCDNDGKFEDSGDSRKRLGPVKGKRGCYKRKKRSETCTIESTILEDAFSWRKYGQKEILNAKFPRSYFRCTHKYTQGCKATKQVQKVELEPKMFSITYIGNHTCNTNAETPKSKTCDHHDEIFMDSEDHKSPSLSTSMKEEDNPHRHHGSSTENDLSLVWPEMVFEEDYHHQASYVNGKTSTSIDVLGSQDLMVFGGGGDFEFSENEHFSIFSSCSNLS

WRKY50BD [3] = biological target: T1, WRKY50BD; experiment: as above; conditions: protein: recombinant; label: 3' biotin (probe)
WRKY70 [4] = biological target: T2, WRKY70; experiment: competition; 4000-fold excess against labelled S2; EMSA with 3' biotin-labelled probes (LightShift kit detection); buffer, salt, pH and temperature not given (earlier protocols cited); conditions: protein: recombinant; label: unlabelled
WRKY50BD [5] = biological target: T1, WRKY50BD; experiment: as above; conditions: protein: recombinant; label: unlabelled
WRKY50BD [6] = biological target: T1, WRKY50BD; experiment: EMSA; shift abolished or strongly reduced by 4000-fold unlabelled S1; EMSA with 3' biotin-labelled probes (LightShift kit detection); buffer, salt, pH and temperature not given (earlier protocols cited); conditions: protein: recombinant; label: 3' biotin (probe)
WRKY70 [7] = biological target: T2, WRKY70; experiment: EMSA; EMSA with 3' biotin-labelled probes (LightShift kit detection); buffer, salt, pH and temperature not given (earlier protocols cited); conditions: protein: recombinant; label: 3' biotin (probe)

T1 sequence (Q8VWQ5 86-173): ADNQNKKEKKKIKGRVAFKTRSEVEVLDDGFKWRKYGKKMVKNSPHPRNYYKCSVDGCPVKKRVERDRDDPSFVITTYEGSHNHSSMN

B1: S1mut1 (dsDNA)
DNA 1: CACATTTACATTGCAGTCCCTCTTGCATGCCGTC
DNA 2: GACGGCATGCAAGAGGGACTGCAATGTAAATGTG
binding result (WRKY50BD [1]): no binding

B2: S2 (dsDNA)
DNA 1: ATCGTCTAAGAGACGACTTTTCTCGTAACTTTAT
DNA 2: ATAAAGTTACGAGAAAAGTCGTCTCTTAGACGAT
binding result (WRKY70 [2]): binds
binding result (WRKY50BD [3]): binds

B3: S2mut1 (dsDNA)
DNA 1: ATCGTCTAAGAGACAGTCCCTCTCGTAACTTTAT
DNA 2: ATAAAGTTACGAGAGGGACTGTCTCTTAGACGAT
binding result (WRKY70 [4]): no binding
binding result (WRKY50BD [5]): no binding

B4: S1 (dsDNA)
DNA 1: CACATTTACATTGCGACTTTTCTTGCATGCCGTC
DNA 2: GACGGCATGCAAGAAAAGTCGCAATGTAAATGTG
binding result (WRKY50BD [6]): binds
binding result (WRKY70 [7]): no binding
